Measured values reported in patent publication US20230059344A1.

Biological target: h4-1-BB on a genetically engineered Jurkat T cell line (Promega 4-1BB Bioassay) (human) (UniProt Q07011)
Assay: cell-based or functional assay
Conditions: scale: relative luciferase

Chain of h4-1-BB on a genetically engineered Jurkat T cell line (Promega 4-1BB Bioassay) (human) (Q07011 24-255, change not shown): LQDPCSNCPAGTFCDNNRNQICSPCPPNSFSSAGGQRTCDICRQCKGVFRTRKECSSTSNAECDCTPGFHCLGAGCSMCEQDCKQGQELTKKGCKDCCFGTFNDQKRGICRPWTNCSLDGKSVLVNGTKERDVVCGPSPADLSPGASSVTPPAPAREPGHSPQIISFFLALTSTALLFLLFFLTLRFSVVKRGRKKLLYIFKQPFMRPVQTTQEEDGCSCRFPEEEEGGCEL

His-tagged h4-1BBL cross-linked with an Fc (from UniProt P41273 71-254) (ligand)
luciferase expression by Jurkat-h4-1BB cells: 1
